Sequences and labels used below:
T1: FcγRIIb extracellular domain with C-terminal His tag (human, UniProt P31994 43-217)
T1 construct: extracellular domain; also called 2b; FcgRIIb
T1 sequence (looked up): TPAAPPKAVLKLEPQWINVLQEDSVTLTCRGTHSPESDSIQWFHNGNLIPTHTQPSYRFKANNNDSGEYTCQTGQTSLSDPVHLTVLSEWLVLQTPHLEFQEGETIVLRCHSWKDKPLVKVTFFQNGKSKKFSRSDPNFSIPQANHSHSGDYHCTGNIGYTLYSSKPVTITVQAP

B1: GpH7-A5/GpH7-B3 variant A330_16H/GpL16-k0 (antibody, human IgG1, kappa)
heavy 1: not shown
heavy 2: not shown
light: DIVMTQSPLSLPVTPGEPASISCQASESLVHSNRNTYLHWYLQKPGQSPQLLIYKVSNRFSGVPDRFSGSGSGTDFTLKISRVEAEDVGVYYCSQNTHVPPTFGQGTKVEIERTVAAPSVFIFPPSDEQLKSGTASVVCLLNNFYPREAKVQWKVDNALQSGNSQESVTEQDSKDSTYSLSSTLTLSKADYEKHKVYACEVTHQGLSSPVTKSFNRGEC
notes: also called He Ab
B2: GpH7-A5/GpH7-B3 variant E333_02A/GpL16-k0 (antibody, human IgG1, kappa)
heavy 1: not shown
heavy 2: not shown
light: B1 light
notes: also called He Ab
B3: GpH7-A5/GpH7-B3 variant E333_09D/GpL16-k0 (antibody, human IgG1, kappa)
heavy 1: not shown
heavy 2: not shown
light: B1 light
notes: also called He Ab
B4: GpH7-A5/GpH7-B3 variant A330_20W/GpL16-k0 (antibody, human IgG1, kappa)
heavy 1: not shown
heavy 2: not shown
light: B1 light
notes: also called He Ab
B5: GpH7-A5/GpH7-B3 variant I336_02A/GpL16-k0 (antibody, human IgG1, kappa)
heavy 1: not shown
heavy 2: not shown
light: B1 light
notes: also called He Ab
B6: GpH7-A5/GpH7-B3 variant E333_20W/GpL16-k0 (antibody, human IgG1, kappa)
heavy 1: not shown
heavy 2: not shown
light: B1 light
notes: also called He Ab
B7: GpH7-A5/GpH7-B3 variant I336_10E/GpL16-k0 (antibody, human IgG1, kappa)
heavy 1: not shown
heavy 2: not shown
light: B1 light
notes: also called He Ab
B8: GpH7-A5/GpH7-B3 variant I336_09D/GpL16-k0 (antibody, human IgG1, kappa)
heavy 1: not shown
heavy 2: not shown
light: B1 light
notes: also called He Ab
B9: GpH7-A5/GpH7-B3 variant E333_03V/GpL16-k0 (antibody, human IgG1, kappa)
heavy 1: not shown
heavy 2: not shown
light: B1 light
notes: also called He Ab
B10: GpH7-A5/GpH7-B3 variant I336_03V/GpL16-k0 (antibody, human IgG1, kappa)
heavy 1: not shown
heavy 2: not shown
light: B1 light
notes: also called He Ab
B11: GpH7-A5/GpH7-B3 variant D270_10E/GpL16-k0 (antibody, human IgG1, kappa)
heavy 1: not shown
heavy 2: not shown
light: B1 light
notes: also called He Ab
B12: GpH7-A5/GpH7-B3 variant I332_19Q/GpL16-k0 (antibody, human IgG1, kappa)
heavy 1: not shown
heavy 2: not shown
light: B1 light
notes: also called He Ab
B13: GpH7-A5/GpH7-B3 variant I332_01G/GpL16-k0 (antibody, human IgG1, kappa)
heavy 1: not shown
heavy 2: not shown
light: B1 light
notes: also called He Ab
B14: GpH7-A5/GpH7-B3 variant I332_13S/GpL16-k0 (antibody, human IgG1, kappa)
heavy 1: not shown
heavy 2: not shown
light: B1 light
notes: also called He Ab
B15: GpH7-A5/GpH7-B3 variant E333_13S/GpL16-k0 (antibody, human IgG1, kappa)
heavy 1: not shown
heavy 2: not shown
light: B1 light
notes: also called He Ab
B16: GpH7-A5/GpH7-B3 variant E333_04F/GpL16-k0 (antibody, human IgG1, kappa)
heavy 1: not shown
heavy 2: not shown
light: B1 light
notes: also called He Ab
B17: GpH7-A5/GpH7-B3 variant E333_16H/GpL16-k0 (antibody, human IgG1, kappa)
heavy 1: not shown
heavy 2: not shown
light: B1 light
notes: also called He Ab

The target of the first test is T2, FcγRIIIa extracellular domain with C-terminal His tag (human, UniProt P08637 17-208).
T2 construct: extracellular domain; also called 3a; FcgRIIIa
T2 sequence (P08637 17-208): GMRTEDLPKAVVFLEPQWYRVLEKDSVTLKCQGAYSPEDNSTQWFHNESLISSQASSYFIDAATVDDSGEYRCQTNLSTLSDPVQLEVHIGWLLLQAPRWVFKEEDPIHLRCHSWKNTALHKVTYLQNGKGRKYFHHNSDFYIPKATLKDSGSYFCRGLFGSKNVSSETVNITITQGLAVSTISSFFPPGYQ
Put plainly: SPR, binding relative to GpH7-A5/GpH7-B3/GpL16-k0 = 100. Here is the method:
(§1) The heterodimerized antibodies He Abs in which one of the H chains was introduced with an alteration were assayed for their binding activities to each activating FcγR and inhibitory FcγR according to the method described in Example 4. […] The activating FcγRs in FIGS. 26, 27, 28, and 29 are FcγRIa, FcγRIIa (R), FcγRIIa (H), and FcγRIIIa, respectively.
(§2) Analysis of interaction between objective antibody and the FcγR was carried out using Biacore T100 (GE Healthcare). HBS-EP+ (GE Healthcare) was used as the running buffer, and the measurement temperature was set to 25° C. Chips produced by immobilizing the antigen peptide by the amine coupling method to a Series S Sencor Chip CM5 (GE Healthcare), or alternatively, chips produced by allowing preliminarily biotinylated antigen peptides to interact with and immobilize onto a Series S Sensor Chip SA (certified) (GE Healthcare) were used. Antibodies of interest were captured onto an antigen peptide-immobilized chip, and allowed to interact to each FcγR diluted with running buffer. To regenerate and repeatedly use the chip, the antibodies captured on the chip were washed off by reacting 10 mM glycine-HCl, pH 1.5.
For B1, the He/Con_3a was 104 % of control.
Consider B2, for which the He/Con_3a is 105 % of control.
Turning to B3, the He/Con_3a was 112 % of control.
As for B4, the He/Con_3a was 104 % of control.
Turning to B5, the He/Con_3a was 111 % of control.
As for B6, the He/Con_3a was 101 % of control.
On to B7, for which the He/Con_3a is 119 % of control.
In the case of B8, the He/Con_3a was 106 % of control.
Regarding B9, the He/Con_3a is 103 % of control.
Still for that read-out and setting: in the case of B10 it was 112 % of control; in that of B11, 123 % of control; in that of B12, 110 % of control.
Same read-out and setting: in the case of B13 it was 111 % of control; in that of B14, 104 % of control; in that of B15, 103 % of control.
As to B16, the He/Con_3a is 101 % of control.
As for B17, the He/Con_3a was 103 % of control.

Another test has as its target T1, FcγRIIb extracellular domain with …. The description is as above. The procedure: as §1, §2
As for B1, the He/Con_2b is 87.6 % of control.
B2: the He/Con_2b was 83.8 % of control.
As to B3, the He/Con_2b was 94.3 % of control.
Consider B4, for which the He/Con_2b is 76.1 % of control.
With B5, the He/Con_2b was 84.9 % of control.
Regarding B6, the He/Con_2b is 89.5 % of control.
With B7, the He/Con_2b was 89.8 % of control.
Regarding B8, the He/Con_2b is 92.1 % of control.
Regarding B9, the He/Con_2b is 93.2 % of control.
For B10, the He/Con_2b is 90.3 % of control.
B11: the He/Con_2b is 76.5 % of control.
With B12, the He/Con_2b was 94.3 % of control.
Same read-out and setting: then B13, with 87.1 % of control.
Regarding B14, the He/Con_2b is 98.4 % of control.
Consider B15, for which the He/Con_2b is 81.8 % of control.
B16: the He/Con_2b was 94.6 % of control.
With B17, the He/Con_2b is 83.3 % of control.

Source of the values: patent US20150344570A1 (published 2015).
